Results published in the supplement of paper PMC9732359.
± gives the uncertainty stated by the source.

Assay: protein stability index of a GFP-peptide fusion (yeast GPS) (PSI 1-4); higher = more stable; sorted into four equal gates, so the index is relative within each strain
Details: san1∆
Outline: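 Tiled yeast protein peptides of 17 residues were each joined downstream of GFP, on plasmids that also express Cherry. The pooled library was maintained in yeast, and mid-log cultures in leucine-free medium were sorted into four equal gates on the GFP/Cherry ratio. Plasmids from every gate were amplified by PCR and sequenced on Illumina, with barcodes linking reads to strains. The protein stability index of a peptide is its gate-number-weighted read frequency summed over the gates.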

Row | Sequence | protein stability index
1 | YARADTHFLLNIYDQLR [RRP6] | 2.44 ± 0.05
2 | YDKKKRVVVPQALRVLR [RPL16B] | 2.17 ± 0.084

Same assay, conditions: ubr1∆

Row | Sequence | protein stability index
3 | VNECIAQSHQRFNAKVS [CDC53] | 2.3 ± 0.027
4 | VNGLLQVLMDINTLNGG [GAL11] | 2.91 ± 0.036
5 | VNQEFIFEAISLSDELN [YJL039C/NUP192] | 2.75 ± 0.058
6 | VNSIALFVGTDRQLHEI [RPN14] | 2.67 ± 0.074
7 | VPKEGLFYFDSSFRPCP [BRR2] | 3.14 ± 0.039
8 | VPKLESSRTKFWSFLDS [YJL039C/NUP192] | 1.44 ± 0.096
9 | VPLAMGIVSVSDPQMKV [RPN1] | 1.51 ± 0.051
10 | VPNSSDQAELPNNASSH [SNF2] | 2.74 ± 0.16
11 | VPPILIILPLDNATLTE [SSN2] | 2.51 ± 0.087
12 | VPSHVPQVLINRDPVKH [SIR2] | 2.76 ± 0.098
13 | VPSYIHVEKERASTELS [YIL149C/MLP2] | 2.77 ± 0.054
14 | VPTGGASSAAAGAAGAA [RPP2B] | 2.97 ± 0.1
15 | VQASVTSSTHERKSKTY [RET1] | 2.97 ± 0.061
16 | VQCHGSFATATCVTCHW [SIR2] | 2.51 ± 0.031
17 | VQDKDTLSNAERAKNVN [GAL11] | 2.91 ± 0.12
18 | VQLPILKIIYTGLCSFD [YJL039C/NUP192] | 1.76 ± 0.058
19 | VQRTMLELLNQLDGFSS [RPT5] | 2.99 ± 0.05
20 | VQSQVDSSSVSEDSAVF [FAS1] | 3.29 ± 0.049
21 | VQYLSGAHGNSDPVCLF [POP3] | 2.75 ± 0.063
22 | VRDELRKVEKEKNEKER [UBP6] | 3.78 ± 0.2
23 | VRHGRAGATTSRFIPLK [RPS15] | 3.06 ± 0.064
24 | VRIFTKIESEDDYILSG [SRB4] | 2.79 ± 0.092
25 | VRLPTKVLKISTRKTPN [RPS20] | 2.42 ± 0.084

Row | Sequence | protein stability index
26 | VRNKSYPVYTRLRTLCR [DIS3] | 2.46 ± 0.051
27 | VRNVKGPVRENDILVLM [RPS28A] | 2.98 ± 0.074
28 | VRPFGVSTLIAGFDPRD [PRE6] | 1.41 ± 0.084
29 | VRSTIKFQLKKVLCLAV [RPL1A] | 1.18 ± 0.037
30 | VRTSATFRLPKTLKLAR [RPL25] | 2.72 ± 0.14
31 | VSEGTRAVTKYSSSTQA [HTB1] | 3.02 ± 0.071
32 | VSHHATTFTHCEIHPSM [RPB2] | 2.96 ± 0.062
33 | VSIDIEEPQLDLLDDVL [MTW1] | 3.19 ± 0.048
34 | VSKSEPKFFLGEENRVR [QCR2] | 3.26 ± 0.048
35 | VSMVKRAIDSLIQKGYL [CDC53] | 1.74 ± 0.052
36 | VSNILSAFKFIHTQLSE [YJL039C/NUP192] | 1.58 ± 0.037
37 | VSNSGAQDEEIHKQIVI [UBP6] | 3.16 ± 0.11
38 | VSPNAAPRQEISEEETT [YAR002W/NUP60] | 2.6 ± 0.12
39 | VSQMVAVVGQQIISGNR [RPO31] | 2.68 ± 0.13
40 | VSTEGNVPQTLAPVPYE [RPL21A] | 3.05 ± 0.068
41 | VSVEGVNVEKFNVEYFA [RPL6A] | 3.16 ± 0.054
42 | VSYMMPSLYRLLNILIT [SRB8] | 1.3 ± 0.057
43 | VTGFAEVGPWGSARTRW [FAS2] | 2.06 ± 0.071
44 | VTLNKYCSGNIYDFHKM [YJL039C/NUP192] | 2.78 ± 0.041
45 | VTNIRRIIQDNISPRLV [RRP46] | 2.23 ± 0.074
46 | VTNNVEEGEFIIDLYSL [TAF14] | 3.54 ± 0.06
47 | VTQQKRSLDENRLEIKY [SMC1] | 2.08 ± 0.062
48 | VTRGISVLKDSDDKTRQ [PRE1] | 3.17 ± 0.059

Row | Sequence | protein stability index
49 | VTSSFFYRGNYTDFENT [FAS1] | 2.57 ± 0.056
50 | VVEDKPLLSKKERLVRD [SMB1] | 1.49 ± 0.056
51 | VVGRTTRSNPPFKRKML [REC8] | 2.75 ± 0.054
52 | VWYGLSDGEDGHIPWHI [SSN2] | 3.1 ± 0.062
53 | VYNNSKDEYLAQLDGRI [NSL1] | 3.36 ± 0.045
54 | WAADSVSSRVRGYTCQF [FAS1] | 2.69 ± 0.13
55 | WADNYERKEQEEKEKEQ [BRN1] | 3.46 ± 0.14
56 | WAGKRLWDQDIAIAGTG [COR1] | 2.66 ± 0.072
57 | WGAETDELSMIMEHFSQ [RPS12] | 3.29 ± 0.12
58 | WGTLQSVSPQMNAILTD [SMD1] | 2.91 ± 0.074
59 | WLETYSENRDKFLQEFI [IRR1] | 1.92 ± 0.1
60 | WLNFLRGTIPLLERYIG [PRP8] | 1.1 ± 0.065
61 | WLVVPTIYNLQHHVTDA [YML031W/NDC1] | 1.37 ± 0.027
62 | WNLEKWREIIEKVRDYE [IRR1] | 3.19 ± 0.066
63 | WQELARSTDEFNGAQLK [RPT5] | 2.29 ± 0.17
64 | WRKSDRELTKNILWRIA [SIR4] | 2.54 ± 0.089
65 | WRLLFIDKFIMVVQKYK [GRR1] | 2.38 ± 0.043
66 | WTDPNLKSSLADVLSIL [RPN1] | 2.65 ± 0.068
67 | WTIPHKKWNDLKNKNFK [SIR2] | 3.23 ± 0.073
68 | WTVLFRKHHKKGITEEV [RPL24A] | 2.64 ± 0.079
69 | WVFSYLRWFELKPKLYY [SIR3] | 2.49 ± 0.054
70 | YARADTHFLLNIYDQLR [RRP6] | 2.58 ± 0.027
71 | YDKKKRVVVPQALRVLR [RPL16B] | 1.82 ± 0.059
